According to US20100215670A1 (published 2010):

T1: Ep-CAM (Epithelial Cell Adhesion Molecule) (UniProt P16422 24-314, limits assumed)
T1 construct: whole, on cells; Endogenous antigen on tumour cell lines; also called 17-1A; KSA
T1 sequence (looked up): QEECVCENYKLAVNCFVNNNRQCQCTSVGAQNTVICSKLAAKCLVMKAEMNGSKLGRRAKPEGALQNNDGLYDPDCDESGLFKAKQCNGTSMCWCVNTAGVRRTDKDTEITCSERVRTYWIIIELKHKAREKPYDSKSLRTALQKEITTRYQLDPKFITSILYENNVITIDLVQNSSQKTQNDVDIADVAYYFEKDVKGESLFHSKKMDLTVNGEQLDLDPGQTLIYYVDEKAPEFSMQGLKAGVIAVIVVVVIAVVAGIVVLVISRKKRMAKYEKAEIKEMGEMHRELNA

B1: VB6-845-F-de-bouganin (Fab)
chain 1: HHHHHHEVQLVQSGPGLVQPGGSVRISCAASGYTFTNYGMNWVKQAPGKGLEWMGWINTYTGESTYADSFKGRFTFSLDTSASAAYLQINSLRAEDTAVYYCARFAIKGDYWGQGTLLTVSSASTKGPSVFPLAPSSKSTSGGTAALGCLVKDYFPEPVTVSWNSGALTSGVHTFPAVLQSSGLYSLSSVVTVPSSSLGTQTYICNVNHKPSNTKVDKKVEPKSC
chain 2: DIQMTQSPSSLSASVGDRVTITCRSTKSLLHSNGITYLYWYQQKPGKAPKLLIYQMSNLASGVPSRFSSSGSGTDFTLTISSLQPEDFATYYCAQNLEIPRTFGQGTKVELKRTVAAPSVFIFPPSDEQLKSGTASVVCLLNNFYPREAKVQWKVDNALQSGNSQESVTEQDSKDSTYSLSSTLTLSKADYEKHKVYACEVTHQGLSSPVTKSFNRGECTRHRQPRGWEQLYNTVSFNLGEAYEYPTFIQDLRNELAKGTPVCQLPVTLQTIADDKRFVLVDITTTSKKTVKVAIDVTDVYVVGYQDKWDGKDRAVFLDKVPTVATSKLFPGVTNRVTLTFDGSYQKLVNAAKADRKALELGVNKLEFSIEAIHGKTINGQEAAKFFLIVIQMVSEAARFKYIETEVVDRGLYGSFKPNFKVLNLENNWGDISDAIHKSSPQCTTINPALQLISPSNDPWVVNKVSQISPDMGILKFKSSK
notes: also called VB6-845L-F-de-bouganin
B2: VB6-845-CB1-CD-de-bouganin (Fab)
chain 1: B1 chain 1
chain 2: DIQMTQSPSSLSASVGDRVTITCRSTKSLLHSNGITYLYWYQQKPGKAPKLLIYQMSNLASGVPSRFSSSGSGTDFTLTISSLQPEDFATYYCAQNLEIPRTFGQGTKVELKRTVAAPSVFIFPPSDEQLKSGTASVVCLLNNFYPREAKVQWKVDNALQSGNSQESVTEQDSKDSTYSLSSTLTLSKADYEKHKVYACEVTHQGLSSPVTKSFNRGECQGVGFLGTQFFYNTVSFNLGEAYEYPTFIQDLRNELAKGTPVCQLPVTLQTIADDKRFVLVDITTTSKKTVKVAIDVTDVYVVGYQDKWDGKDRAVFLDKVPTVATSKLFPGVTNRVTLTFDGSYQKLVNAAKADRKALELGVNKLEFSIEAIHGKTINGQEAAKFFLIVIQMVSEAARFKYIETEVVDRGLYGSFKPNFKVLNLENNWGDISDAIHKSSPQCTTINPALQLISPSNDPWVVNKVSQISPDMGILKFKSSK
notes: also called CB1-CD construct
B3: VB6-845-F1R-de-bouganin (Fab)
chain 1: B1 chain 1
chain 2: DIQMTQSPSSLSASVGDRVTITCRSTKSLLHSNGITYLYWYQQKPGKAPKLLIYQMSNLASGVPSRFSSSGSGTDFTLTISSLQPEDFATYYCAQNLEIPRTFGQGTKVELKRTVAAPSVFIFPPSDEQLKSGTASVVCLLNNFYPREAKVQWKVDNALQSGNSQESVTEQDSKDSTYSLSSTLTLSKADYEKHKVYACEVTHQGLSSPVTKSFNRGECTRHRRKRSVYNTVSFNLGEAYEYPTFIQDLRNELAKGTPVCQLPVTLQTIADDKRFVLVDITTTSKKTVKVAIDVTDVYVVGYQDKWDGKDRAVFLDKVPTVATSKLFPGVTNRVTLTFDGSYQKLVNAAKADRKALELGVNKLEFSIEAIHGKTINGQEAAKFFLIVIQMVSEAARFKYIETEVVDRGLYGSFKPNFKVLNLENNWGDISDAIHKSSPQCTTINPALQLISPSNDPWVVNKVSQISPDMGILKFKSSK
notes: also called F1R linker construct

How the values were obtained:
[1] = molecular target: T1, Ep-CAM (Epithelial Cell Adhesion …); assay: flow cytometry on CAL 27 cells (Ep-CAM-positive)
[2] = molecular target: T1, Ep-CAM (Epithelial Cell Adhesion …); assay: flow cytometry on NIH:OVCAR-3 cells (Ep-CAM-positive)
[3] = molecular target: T1, Ep-CAM (Epithelial Cell Adhesion …); assay: flow cytometry on CAL 27 cells (Ep-CAM-positive); one representative experiment
[4] = molecular target: T1, Ep-CAM (Epithelial Cell Adhesion …); assay: flow cytometry on NIH:OVCAR-3 cells (Ep-CAM-positive); one representative experiment

Binder	Median Fold (MF) increase [1]	Median Fold (MF) increase [2]	Median Fold (MF) increase [3]	Median Fold (MF) increase [4]
B1	63.6 fold	130 fold	–	–
B2	–	–	68 fold	110 fold
B3	55 fold	112 fold	–	–
